Test results as given in the supplement of paper PMC9732359.
± gives the uncertainty stated by the source.

Experiment: protein stability index of a GFP-peptide fusion (yeast GPS) (PSI 1-4); higher = more stable; sorted into four equal gates, so the index is relative within each strain
How it was run: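 The protein stability index of a peptide was calculated by multiplying its read frequency in each gate by that gate's number and adding the products. The peptides were tiled 17-residue stretches of yeast proteins, fused downstream of GFP on a Cherry-expressing plasmid and carried in yeast as a pooled library. Mid-log cultures in leucine-free medium were sorted into four equal gates by GFP/Cherry ratio, and each gate's plasmids were PCR-amplified and Illumina-sequenced.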

Row | Sequence | protein stability index (doa10∆) | protein stability index (pdr5∆) | protein stability index (san1∆) | protein stability index (ubr1∆)
1 | ISQKLHDSILHSRILPK [RRP43] | 2.57 ± 0.046 | 2.58 ± 0.033 | 2.62 ± 0.037 | 2.8 ± 0.038
2 | EEAGEEEAKEEVTEEQA [RPS0A] | 3.48 ± 0.12 | 3.5 ± 0.1 | 3.02 ± 0.13 | 3.64 ± 0.092
3 | HIMEPCIECQPKAMTDT [HRT1] | 3.13 ± 0.13 | 3.25 ± 0.091 | 2.94 ± 0.11 | 3.29 ± 0.077
4 | NDPEYMDTSDDAFVATA [DLS1] | 3.1 ± 0.17 | 3.49 ± 0.16 | 3.33 ± 0.14 | 
5 | RHKNKHIQGFPTLGERL [DSN1] | 3.41 ± 0.091 | 3.64 ± 0.13 | 3.37 ± 0.06 | 3.44 ± 0.076
6 | IHNYDSKKSTITVRYWL [RGR1] | 3 ± 0.087 | 2.88 ± 0.081 | 2.69 ± 0.067 | 3.09 ± 0.049
7 | TKAQQKTAEQIAAERAA [RPL7B] | 2.81 ± 0.17 |  | 3.07 ± 0.13 | 
8 | KRPRSRTLTAVHDKILE [RPS7A] | 2.06 ± 0.054 | 2.13 ± 0.052 | 2.25 ± 0.064 | 1.88 ± 0.041
9 | DRKDQDDRDHFGKKRLD [RPB2] | 3.27 ± 0.14 | 3.04 ± 0.12 | 3.28 ± 0.13 | 3.39 ± 0.086
10 | AQGVAVQLKRQPAQPRE [RPL21A] | 1.66 ± 0.088 | 1.22 ± 0.081 | 1.61 ± 0.084 | 1.88 ± 0.07
11 | DTPTSGKHNLTIWCVCD [BRR2] | 3.05 ± 0.11 | 3.22 ± 0.1 | 3.14 ± 0.075 | 3.08 ± 0.082
12 | NHSLQHQNESSAASIPP [RPN4] | 2.94 ± 0.057 | 3 ± 0.058 | 2.83 ± 0.062 | 3.12 ± 0.037
13 | KPANASHAIRLGNGVAC [RGR1] | 2.71 ± 0.06 | 3.06 ± 0.052 | 2.52 ± 0.058 | 3.01 ± 0.051
14 | HNKLIQFGNACISLSGV [SSN2] | 2.45 ± 0.11 | 2.84 ± 0.14 | 2.73 ± 0.075 | 2.67 ± 0.13
15 | SINKNNKEMHTDLGKDI [SSN2] |  | 2.07 ± 0.22 | 3.21 ± 0.12 | 3.48 ± 0.14
16 | TLKNRGLPLGIAEEKMW [YGR119C/NUP57] | 1.8 ± 0.078 | 1.7 ± 0.078 | 1.44 ± 0.29 | 1.89 ± 0.039
17 | LSASWDKTLRLWDVATG [ASC1] | 3.52 ± 0.22 | 3.22 ± 0.12 |  | 3.41 ± 0.072
18 | KLSQMILDKIFYGVLDQ [RPN6] | 2.83 ± 0.13 | 2.99 ± 0.12 | 2.92 ± 0.062 | 2.86 ± 0.11
19 | MEYLSGGEKTVAALALL [SMC1] | 2.2 ± 0.15 | 2.41 ± 0.11 | 1.68 ± 0.19 | 2.3 ± 0.13
20 | VVLYNYYLGQYYGCLEN [CSN12] | 2.5 ± 0.17 | 2.57 ± 0.15 | 2.51 ± 0.11 | 1.97 ± 0.13
21 | SIMPDLYFYRDPEEVEQ [RPS0A] | 2.86 ± 0.082 | 2.95 ± 0.077 | 2.94 ± 0.063 | 2.85 ± 0.06
22 | CNERVPLSVATELMNRS [SRP72] | 2.43 ± 0.033 | 2.52 ± 0.044 | 2.26 ± 0.052 | 2.19 ± 0.036
23 | CSKSIPKDKAIKRMAIR [RPS26A] | 2.8 ± 0.069 | 2.96 ± 0.073 | 2.73 ± 0.065 | 2.85 ± 0.046
24 | ILNSHFDALRSLDDNST [YJL041W/NSP1] | 2.36 ± 0.054 | 2.07 ± 0.046 | 2.53 ± 0.064 | 2.55 ± 0.036
25 | IPYGPDFDNIEFKKIPR [SEC65] | 3.21 ± 0.093 | 3.1 ± 0.11 | 2.87 ± 0.075 | 3.17 ± 0.084
26 | QVPSSLIVRAKNHTHNL [RRP4] | 2.56 ± 0.076 | 2.89 ± 0.06 | 2.67 ± 0.072 | 2.87 ± 0.055

Row | Sequence | protein stability index (doa10∆) | protein stability index (pdr5∆) | protein stability index (san1∆) | protein stability index (ubr1∆)
27 | DLALKMGVPIYGIVAMA [FAS2] | 1.85 ± 0.27 | 1.17 ± 0.093 | 1.36 ± 0.28 | 1.18 ± 0.078
28 | NTNNNNTNNNNNPANNT [SWI1] | 3.35 ± 0.044 | 3.354 ± 0.033 | 3.409 ± 0.027 | 3.3 ± 0.044
29 | ALIFIFFAYFIGWCKED [YJL039C/NUP192] | 1.84 ± 0.088 | 1.54 ± 0.062 | 2.03 ± 0.093 | 1.88 ± 0.062
30 | IEPFECVEISHISKIIG [RPN6] | 2.47 ± 0.14 |  | 1.94 ± 0.3 | 
31 | CIFGDAFDVDRAKSCGV [RPL1A] | 3.01 ± 0.073 | 2.75 ± 0.084 | 2.57 ± 0.11 | 2.59 ± 0.081
32 | SVGLPSKVASSLVIIIL [ECM29] | 2.21 ± 0.048 | 1.8 ± 0.041 | 2.28 ± 0.064 | 2.21 ± 0.061
33 | PAMAMEDLKNFIFQIIE [SRB8] | 2.62 ± 0.065 | 2.9 ± 0.074 | 2.73 ± 0.078 | 1.71 ± 0.05
34 | PSLYRLLNILITYGIIK [SRB8] | 1.37 ± 0.12 | 1.07 ± 0.12 |  | 1.04 ± 0.044
35 | SKKSTITVRYWLNGKMD [RGR1] |  |  | 2.28 ± 0.2 | 
36 | NNRSVSMQTIAETIILS [SRB5] | 2.02 ± 0.052 | 1.91 ± 0.068 | 1.56 ± 0.07 | 1.84 ± 0.031
37 | VKKPTFTFGQSTSENKI [YOR098C/NUP1] | 3.02 ± 0.21 | 2.87 ± 0.21 | 3.14 ± 0.2 | 3.45 ± 0.14
38 | NILPFLWGPHGLNSDAE [ECM29] | 2.86 ± 0.21 | 2.71 ± 0.16 | 2.54 ± 0.14 | 2.42 ± 0.2
39 | KILSILNRSHFATTKAE [ECM29] | 2.68 ± 0.076 | 2.33 ± 0.048 | 2.4 ± 0.047 | 2.19 ± 0.037
40 | KSLDKKIAKRRQVYKPV [POP3] | 3.25 ± 0.21 | 3.09 ± 0.15 | 2.54 ± 0.23 | 3.5 ± 0.2
41 | IDKLSDVVMKATEPQMV [PRP8] | 2.38 ± 0.063 | 2.71 ± 0.064 | 2.42 ± 0.065 | 2.28 ± 0.055
42 | LIIQYPPNNARRTYNTL [ISW2] | 2.09 ± 0.037 | 2.49 ± 0.042 | 2.43 ± 0.052 | 2.33 ± 0.031
43 | DLTMGQVGERIKQTFKN [RPO21] | 3.31 ± 0.15 | 2.81 ± 0.19 | 3.25 ± 0.073 | 3.23 ± 0.11
44 | SGVKNDILQSLSGGGHD [CDC53] | 3.09 ± 0.075 | 3.09 ± 0.077 | 2.71 ± 0.068 | 2.8 ± 0.048
45 | QDKEKIDNLKDTLKENA [ITC1] | 2.87 ± 0.046 | 3.07 ± 0.055 | 3.02 ± 0.043 | 3.09 ± 0.04
46 | LQKALTVKTNDELMVIY [RPN8] | 2.33 ± 0.11 | 1.89 ± 0.067 | 1.84 ± 0.13 | 2.65 ± 0.061
47 | ISVIETIRVVTENKIFV [RPN5] | 1.6 ± 0.14 | 1.82 ± 0.1 | 1.9 ± 0.27 | 2.03 ± 0.093
48 | AISKKNKSLKYVIHGIE [LIN1] | 2.02 ± 0.058 | 1.84 ± 0.053 | 2.11 ± 0.084 | 1.84 ± 0.04
49 | KAAFEDLKSKGLIPADA [FAS1] | 3 ± 0.09 | 3.29 ± 0.1 | 3.14 ± 0.073 | 3.35 ± 0.066
50 | EDILQGIFNLLNTLFNP [NUT1] | 2.23 ± 0.052 | 2.35 ± 0.055 | 2.41 ± 0.078 | 2.3 ± 0.075
51 | NNIKNGTNNISQHGQGN [YDL088C/ASM4] | 2.93 ± 0.046 | 2.87 ± 0.033 | 3.05 ± 0.034 | 3.06 ± 0.021
52 | LLKEEKIIELMNKIFTI [YML103C/NUP188] | 2.81 ± 0.088 | 1.57 ± 0.097 | 1.26 ± 0.15 | 1.79 ± 0.25
